The record followed here is US20240218055A1 (US Dept. of Health and Human Services, published 2024).

Assay [1] concerns the target T1, LASV GP1 subunit protein (Lassa virus, UniProt P08669 59-259).
T1 sequence: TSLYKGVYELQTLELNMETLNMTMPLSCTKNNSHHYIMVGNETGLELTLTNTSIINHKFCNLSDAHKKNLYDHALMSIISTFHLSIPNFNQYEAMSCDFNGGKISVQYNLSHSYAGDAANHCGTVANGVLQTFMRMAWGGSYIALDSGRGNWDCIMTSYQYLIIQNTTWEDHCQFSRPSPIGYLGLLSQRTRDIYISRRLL
The experiment in a line: BLI. On the technique in general: Biolayer interferometry detects binding as a change in optical thickness at a sensor tip.

For assay [2], the target named is T2, LASV Josiah GPC on pseudotyped rVSV (Lassa virus (Josiah strain), UniProt P08669 1-491).
T2 sequence: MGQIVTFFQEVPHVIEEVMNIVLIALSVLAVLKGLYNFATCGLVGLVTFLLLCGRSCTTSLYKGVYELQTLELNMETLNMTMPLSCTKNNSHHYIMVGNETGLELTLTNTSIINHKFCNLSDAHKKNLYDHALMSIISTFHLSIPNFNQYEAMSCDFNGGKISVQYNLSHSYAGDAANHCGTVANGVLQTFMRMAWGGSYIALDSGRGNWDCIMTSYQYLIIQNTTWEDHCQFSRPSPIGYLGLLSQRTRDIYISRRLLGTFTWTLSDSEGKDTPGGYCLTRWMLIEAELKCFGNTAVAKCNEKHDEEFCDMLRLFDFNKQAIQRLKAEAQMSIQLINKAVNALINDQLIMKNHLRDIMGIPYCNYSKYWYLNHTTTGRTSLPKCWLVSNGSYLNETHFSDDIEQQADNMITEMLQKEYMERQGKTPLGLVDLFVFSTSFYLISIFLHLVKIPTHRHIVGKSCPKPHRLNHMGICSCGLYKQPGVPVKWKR
The experiment in a line: cell-based or functional assay.

Assay [3] addresses bovine serum albumin (bovine, UniProt P02769 25-607). Briefly: ELISA, plate coated with BSA. (In general: In an ELISA, binding on a coated surface is turned into a signal by an enzyme label.)
Assay [4] deals with T1, LASV GP1 subunit protein. Briefly: BLI. The source holds these as a separate data set.
Assay [5] addresses LASV GP2 subunit protein (Lassa virus). Briefly: BLI.

Like-named read-outs stand apart in the source and are kept apart here.

Sequence of bovine serum albumin (P02769 25-607 limits assumed): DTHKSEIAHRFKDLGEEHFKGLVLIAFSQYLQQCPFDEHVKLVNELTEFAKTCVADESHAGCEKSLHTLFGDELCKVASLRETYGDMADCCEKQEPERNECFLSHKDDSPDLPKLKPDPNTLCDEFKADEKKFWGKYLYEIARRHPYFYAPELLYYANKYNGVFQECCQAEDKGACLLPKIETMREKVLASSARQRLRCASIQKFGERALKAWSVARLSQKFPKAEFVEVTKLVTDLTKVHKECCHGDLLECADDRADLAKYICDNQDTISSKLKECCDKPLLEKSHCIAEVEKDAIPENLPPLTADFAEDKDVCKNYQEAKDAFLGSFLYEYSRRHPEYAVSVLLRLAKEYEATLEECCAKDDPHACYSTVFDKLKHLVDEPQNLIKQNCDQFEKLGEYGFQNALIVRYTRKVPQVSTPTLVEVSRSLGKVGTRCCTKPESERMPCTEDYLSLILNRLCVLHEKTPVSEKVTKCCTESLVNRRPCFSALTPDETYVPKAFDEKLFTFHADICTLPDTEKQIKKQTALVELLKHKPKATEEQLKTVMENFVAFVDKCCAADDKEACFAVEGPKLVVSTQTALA

B1: shark VNAR A10 (VNAR)
chain: ARVDQTPQTITKETGESLTITCILRDSQCALSPTYWYHKKSGSTKPERIYKGGRYVETVNSGSKSFSLRINDLTVEDSGTFFCKVSGWYAYSCRLEPDGYYDVYGGGTVVTVN
For orientation: Kd means a measure of binding affinity in units of concentration. Higher therefore signals a looser complex. As for B1, the Kd in assay [1] came to 22.7 nM. Moreover, the “neutralization of LASV pseudotyped Josiah virus” value in assay [2] was < 50%. Further, the binding result in assay [3] is “no binding (tested: 1 ug/ml (single concentration))”.

B2: shark VNAR A1 (VNAR)
VNAR: ARVDQTPQTITKETGESLTINCVPPDSNCALADTYWYRKKSGSTNEESISKGGRYVPTVNSGSKSFILRINDLRVADSGTYRCKVSCYAAAYYGQQLERLYDVYGGGTAVTVN
In assay [1], B2 gave a Kd of 18.6 nM. Moreover, the “neutralization of LASV pseudotyped Josiah virus” value in assay [2] was < 50%. In addition, the binding result in assay [3] is recorded as “no binding (tested: 1 ug/ml (single concentration))”.

B3: shark VNAR B10 (VNAR)
VNAR: ARVDQTPQTITKETGESLTINCVLRDSNCPLSSTFWYRADAGSLNEENISKGGRYVETVNSGSKSFSLRINDLTTEDSGTYRCKVAGLPLDCIPARGLELNWREDVYGGGTAVTVN
Broadly, the koff is the first-order rate constant of dissociation. A word on the kon: it is the rate constant with which the complex forms. A high value points to faster complex formation. With B3, in assay [1], the equilibrium dissociation constant (Kd) was determined as 78.6 nM. In assay [4], this molecule returned a koff of 0.00414 s⁻¹ and an association rate constant (kon) of 52700 M⁻¹ s⁻¹. Moreover, the “neutralization of LASV pseudotyped Josiah virus” value in assay [2] is < 50%. In addition, the binding result in assay [3] is reported as “no binding (tested: 1 ug/ml (single concentration))”.

B4: shark VNAR B8 (VNAR)
VNAR: ARVDQTPQTVTKETGESLTINCVLRDSNCALPSTYWYRKKSGSTNEENISKGGRYVETVNSGSKSFSLRINDLRPEDSGTYRCKVHGLPLDCIPARGLELNWREDVNGGGTAVTVN
B4: the dissociation constant Kd in assay [1] is 15.9 nM. Moreover, in assay [4], the koff was 0.00236 s⁻¹ and the kon was determined as 149000 M⁻¹ s⁻¹. In addition, the “neutralization of LASV pseudotyped Josiah virus” value in assay [2] is < 50%. Moreover, the binding result in assay [3] is “no binding (tested: 1 ug/ml (single concentration))”.

B5: camel VHH D5 (VHH)
VHH: AWQLVESGGGSVQPGGSLTLTCQASKSTFSTSGMRWERQAQGKGVEFVADISSDSTRKWYSDSVKGRFTISRSNWWRTVTLQMNDLKPEDTARYYCKDLESHHLRGQGTQVTVSS
B5: the Kd in assay [1] was determined as 20.8 nM. In addition, in assay [4], binding was characterised by a dissociation constant (Kd) of 20.8 nM and the kon came out at 23400 M⁻¹ s⁻¹. Also, in assay [2], the “neutralization of LASV pseudotyped Josiah virus” value was < 50%.

B6: shark VNAR C3 (VNAR)
VNAR: ARVDQTPQTITAETGESLTINCVLRNSDCGLSDTYWFRMSPGSGSEERISIGGRYLETVNSVSKSFSLRINDLTVEDSGRYRCKTDVYRYVSGSGCLYSYFASGAGTVVTVN
Take B6: in assay [5], the Kd is 10.6 nM, the koff turned out to be 0.000265 s⁻¹ and the on-rate (kon) stood at 25100 M⁻¹ s⁻¹. In addition, in assay [1], the binding result is recorded as “no binding”. In assay [2], the “neutralization of LASV pseudotyped Josiah virus” value is < 50%. For the same molecule, the binding result in assay [3] is listed as “no binding (tested: 1 ug/ml (single concentration))”.

B7: bivalent single domain antibody D5 in IgG2a format (Fc fusion)
chain 1: AWQLVESGGGSVQPGGSLTLTCQASKSTFSTSGMRWERQAQGKGVEFVADISSDSTRKWYSDSVKGRFTISRSNWWRTVTLQMNDLKPEDTARYYCKDLESHHLRGQGTQVTVSSAAAEPKIPQPQPKPQPQPQPQPKPQPKPEPECTCPKCP
chain 2: B7 chain 1
As to B7, the “IC50, neutralization of Josiah pseudovirus” value in assay [2] was found to be 12 µg/mL.
